In the supplement of paper PMC9732359:
± gives the uncertainty stated by the source.

Assay: protein stability index of a GFP-peptide fusion (yeast GPS) (PSI 1-4); higher = more stable; sorted into four equal gates, so the index is relative within each strain
Summary of the method: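 Plasmids in a pooled yeast library fused tiled 17-residue yeast protein peptides downstream of GFP and also expressed Cherry. Mid-log cultures grown without leucine were sorted into four equal gates by GFP/Cherry fluorescence ratio. Each gate's plasmids were PCR-amplified and Illumina-sequenced, and reads were matched to strains by barcodes. The protein stability index is derived by multiplying each gate's read frequency by its gate number and summing the results.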

Sequence	protein stability index (doa10∆)	protein stability index (pdr5∆)	protein stability index (san1∆)	protein stability index (ubr1∆)
RAAKLAAPENEKPAPVR [RPS15]	3.21 ± 0.1	3.15 ± 0.11	2.89 ± 0.073	3.36 ± 0.082
RAASVGSLKLIELLCGL [NAS6]	2.18 ± 0.075	2.13 ± 0.11	1.94 ± 0.11	1.83 ± 0.063
RADTMDFKTDVDEPMTS [YJL039C/NUP192]	3.26 ± 0.087	3.28 ± 0.089	3.25 ± 0.11	3.3 ± 0.066
RAGIIIAKLSVIPIRRG [RPS2]	2.21 ± 0.077	2.13 ± 0.047	1.31 ± 0.13	2.25 ± 0.072
RAGVSQVLNRYTYSSTL [RPB2]	2.96 ± 0.044	2.9 ± 0.041	2.9 ± 0.038	2.76 ± 0.036
RAIDSLIQKGYLQRGDD [CDC53]	1.68 ± 0.066	1.94 ± 0.069	2.17 ± 0.12	2.06 ± 0.077
RALFETKLNLHCVIEDD [RRI1]	2.36 ± 0.11	2.8 ± 0.071	2.8 ± 0.057	2.29 ± 0.1
RALKVRNAQAQREAAAE [RPS6A]	3 ± 0.14	2.98 ± 0.1	2.74 ± 0.074	2.94 ± 0.13
RARLKGKEGRIRGNLMG [RPO21]	3.37 ± 0.097	3.19 ± 0.12	3.32 ± 0.088	2.96 ± 0.081
RCFSCGKVVGDKWESYL [RPB10]	1.73 ± 0.14	2.11 ± 0.1	1.98 ± 0.16	
RCNDNLMRSCFYLMVSS [YJL039C/NUP192]	1.46 ± 0.043	1.72 ± 0.054	2.31 ± 0.057	1.1 ± 0.038
RCYQPFELFDNKTAHLS [SNU114]	2.27 ± 0.1	2.71 ± 0.08	2.53 ± 0.061	2.24 ± 0.041
RDALRNIKNTNEEATPI [RRP6]	2.76 ± 0.07	2.99 ± 0.081	2.86 ± 0.06	2.94 ± 0.064
RDDEPKLYQTEPSGIYS [PRE6]	3.14 ± 0.058	3.07 ± 0.082	3.09 ± 0.051	3.18 ± 0.046
RDIEKITSLYALIRRDF [CDC53]	2.1 ± 0.035	1.89 ± 0.03	1.84 ± 0.05	1.75 ± 0.021
RDREPKEPVALIETVRQ [RPN2]	3.32 ± 0.081	3.47 ± 0.12	3.12 ± 0.079	3.34 ± 0.071
REDEFGSIPSLTTQFVT [YDL088C/ASM4]	3 ± 0.066	2.92 ± 0.058	3.06 ± 0.053	3.2 ± 0.067
REDMPFTAEGIVPDLII [RPB2]	2.49 ± 0.092	3.42 ± 0.15	3.1 ± 0.093	2.79 ± 0.11
REGRHSGYGKRKGTREA [RPL19A]		3.21 ± 0.27		3.52 ± 0.25

Sequence	protein stability index (doa10∆)	protein stability index (pdr5∆)	protein stability index (san1∆)	protein stability index (ubr1∆)
REILCYSKDAKEIYYTP [FAS2]	2.679 ± 0.024	2.821 ± 0.025	2.701 ± 0.025	2.71 ± 0.019
RELLVEGYGLRDVMCTD [RPO31]	2.36 ± 0.063	2.57 ± 0.063	2.77 ± 0.066	2.95 ± 0.056
RERDITSLFHKFILSGF [RRI2]	1.71 ± 0.048	2.07 ± 0.045	2.23 ± 0.063	2.09 ± 0.049
RERQVNEKLADLGLEKE [RPC53]	3.2 ± 0.14	3.4 ± 0.16	3.06 ± 0.18	3.2 ± 0.24
RFMRFLADRDEFIQDSA [ECM29]	1.87 ± 0.052	1.23 ± 0.042	1.21 ± 0.094	2.26 ± 0.029
RFPETMDETQTRAKIGG [RPO21]	3.17 ± 0.26		2.69 ± 0.24	3.42 ± 0.13
RGFIKSEGSGSSLVQKG [RPC53]	3.37 ± 0.1	3.34 ± 0.09	3.31 ± 0.076	3.14 ± 0.057
RGFKVGLVCADTFRAGA [SRP54]	2.19 ± 0.22	2.25 ± 0.081		2.23 ± 0.11
RGIPRLSEDELRELDVE [SMC4]	3.44 ± 0.14	3.68 ± 0.21	3.36 ± 0.14	3.57 ± 0.11
RGMLGLLEPPAKELQGI [RPO31]	2.08 ± 0.18	1.72 ± 0.18	3.28 ± 0.096	3.23 ± 0.16
RGNKVNKQIEILTDLVN [ITC1]	2.83 ± 0.11	2.75 ± 0.098	2.71 ± 0.11	2.97 ± 0.13
RGYFITQEEVELPLEDF [RPB5]	3.46 ± 0.19	3.01 ± 0.16	3.28 ± 0.15	3.14 ± 0.086
RHFGMGPHKGKAPRILS [RPL18A]	2.57 ± 0.14	2.52 ± 0.079	3.09 ± 0.13	2.73 ± 0.1
RHHRKTEKEEDAELMAD [ISW2]	3.5 ± 0.13	3.31 ± 0.11	3.15 ± 0.091	3.32 ± 0.089
RHLPMYTEFIDSFIEKI [ITC1]	2.4 ± 0.097	2.69 ± 0.075	2.85 ± 0.11	3 ± 0.066
RIAVLHQKTKTLASLSI [YGL172W/NUP49]	2.31 ± 0.081	2.25 ± 0.062	2.26 ± 0.07	2.75 ± 0.066
RIDAFNALEHKYFTESD [SSN3]	2.72 ± 0.055	3 ± 0.046	2.95 ± 0.05	3.05 ± 0.052
RIIRKKIFIAVVWYQRL [RRI2]	1.28 ± 0.042	1.27 ± 0.036	1.27 ± 0.084	1.25 ± 0.034
RILQQLKLDKIIHVLTT [RGR1]	1.64 ± 0.068	1.21 ± 0.053	1.72 ± 0.15	2.22 ± 0.073
